{"source": "patent US20200206358A1", "about": "“LONG-CIRCULATING THERANOSTIC AGENTS FOR DIAGNOSING AND IMAGING METASTATIC TUMORS” (The Board of Trustees of the Leland Stanford Junior …, priority 2018, published 2020)", "key": {"[1]": {"test_system": "143B cells", "assay": "inhibition of [^64Cu]DOTA-EB-TMTP1 binding to 143B cells by TMTP1", "details": "TMTP1 competing with [^64Cu]DOTA-EB-TMTP1 on 143B cells; unit inferred"}, "[2]": {"test_system": "highly metastatic tumor cells", "details": "literature, PLOS One (2012) 7(9): e42685; cited from earlier work"}, "[3]": {"assay": "cell uptake of [^64Cu]DOTA-EB-TMTP1", "assay_type": "cell-based", "details": "n=4, mean±SD; uptake ratio increased with time"}, "[4]": {"assay": "microPET/CT imaging, time activity curves in 143B tumor bearing nude mice", "assay_type": "in vivo", "details": "mouse, in vivo, iv; 8 h after i.v. injection, 143B tumor bearing nude mice; read-out: tumor uptake (plateau, PET time activity curve)", "protocol": "(§1) The tumor uptake of [^64Cu]DOTA-EB-TMTP1 was increased as time goes by, and reached the plateau of 6.5±0.8% ID/g at 8 h after injection."}, "[5]": {"test_system": "143B tumor", "assay": "microPET/CT imaging, time activity curves in 143B tumor bearing nude mice", "assay_type": "in vivo", "protocol": "as §1"}, "[6]": {"assay": "in vivo", "set-up": "species or system nude mice", "details": "nude, mouse, iv", "description": "Tumor uptake was 6.7[…]% ID/g."}}, "note": "Non-standard residues stand in square brackets, D forms with d. Residues, ends and D or L forms follow the SMILES beside them. ξ: configuration not given here. *: point of attachment. X1 = Cc1cc(-c2ccc(N*)c(C)c2)ccc1N=Nc1ccc2c(S(=O)(=O)O)cc(S(=O)(=O)O)c(N)c2c1O; DOTA = O=C(O)CN1CCN(CC(=O)O)CCN(CC(=O)*)CCN(CC(=O)O)CC1; ξE = NC(CCC(=O)O)C(=O)O", "data": [{"compound": "NVVRQ [TMTP1]", "values": [{"measurement": "IC50", "setting": "[1]", "value": 211, "unit": "nM"}, {"measurement": "affinity for a series of highly metastatic tumor cells", "setting": "[2]", "value": "high affinity"}]}, {"compound": "Cc1cc(-c2ccc(NC(=O)CCC(NC(=O)CN3CCN(CC(=O)O)CCN(CC(=O)O)CCN(CC(=O)O)CC3)C(=O)NCC(=O)N[C@@H](CC(N)=O)C(=O)N[C@H](C(=O)N[C@H](C(=O)N[C@@H](CCCNC(=N)N)C(=O)N[C@@H](CCC(N)=O)C(=O)O)C(C)C)C(C)C)c(C)c2)ccc1N=Nc1ccc2c(S(=O)(=O)O)cc(S(=O)(=O)O)c(N)c2c1O", "note": "(some centres unmarked) [[^64Cu]DOTA-EB-TMTP1, metal not drawn] ({DOTA}-[ξE](X1)GNVVRQ-OH)", "values": [{"measurement": "time at which cell uptake ratio reached the peak", "setting": "[3]", "value": 45, "unit": "min"}, {"measurement": "tissue uptake at 8 h", "setting": "[4]", "value": "6.5 ± 0.8", "unit": "%ID/g"}, {"measurement": "tumor uptake (plateau, PET time activity curve)", "setting": "[5]; 8 h after i.v. injection, 143B tumor bearing nude mice", "value": "6.5%±0.8 % ID/g"}, {"measurement": "circulation time in the body", "setting": "[5]; mouse, in vivo", "value": "long circulation time"}, {"measurement": "pharmacokinetic properties", "setting": "[5]; mouse, in vivo", "value": "favorable pharmacokinetic properties"}, {"measurement": "tissue uptake at 48 h", "setting": "[6]", "value": 6.7, "unit": "%ID/g"}]}]}
